The values that follow come from US20260232827A1 (Zymeworks, published 2026).

Where a chain is given by its changes, count along the chain named.

The target of assay [1] is T1, human sodium-dependent phosphate transporter 2B (NaPi2b) (human, UniProt O95436 1-690).
T1 construct: UniProt ID is given as 095436 [sic]; also called hNaPi2b; Hu NaPi2b
T1 sequence: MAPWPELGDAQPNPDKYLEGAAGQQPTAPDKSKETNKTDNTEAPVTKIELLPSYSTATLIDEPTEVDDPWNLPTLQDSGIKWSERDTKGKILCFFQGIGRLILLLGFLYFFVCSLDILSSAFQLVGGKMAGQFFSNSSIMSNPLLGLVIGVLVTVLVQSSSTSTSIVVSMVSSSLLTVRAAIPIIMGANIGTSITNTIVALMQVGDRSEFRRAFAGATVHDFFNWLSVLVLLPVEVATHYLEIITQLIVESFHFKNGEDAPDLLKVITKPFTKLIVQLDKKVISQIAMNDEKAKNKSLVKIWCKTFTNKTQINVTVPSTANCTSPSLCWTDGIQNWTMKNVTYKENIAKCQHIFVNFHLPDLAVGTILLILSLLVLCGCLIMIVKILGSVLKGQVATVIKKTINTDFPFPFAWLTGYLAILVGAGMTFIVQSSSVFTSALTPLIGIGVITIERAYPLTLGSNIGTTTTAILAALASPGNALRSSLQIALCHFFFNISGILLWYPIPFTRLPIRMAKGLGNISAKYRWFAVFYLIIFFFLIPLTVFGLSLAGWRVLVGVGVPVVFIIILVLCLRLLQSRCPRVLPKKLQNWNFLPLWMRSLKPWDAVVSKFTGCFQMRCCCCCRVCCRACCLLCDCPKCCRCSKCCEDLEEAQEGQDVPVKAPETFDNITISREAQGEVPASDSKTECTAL
The assay is described as follows: flow cytometry on IGROV-1 cells (endogenous NaPi2b), 24 h at 4 C, anti-human IgG Fc AF647. In general terms: Flow cytometry measures light scatter and fluorescence of single cells or particles in a stream.
Description: (§1) Following incubation and washing, fluorescence was detected by flow cytometry on a BD LSRFortessa™ Cell Analyzer (BD Biosciences, Franklin Lake, NJ) with 1,000 minimum events collected per well.

Another assay addresses T2, mouse NaPi2b (mouse, UniProt Q9DBP0 1-697).
T2 construct: also called Ms NaPi2b; CL #13476
T2 sequence: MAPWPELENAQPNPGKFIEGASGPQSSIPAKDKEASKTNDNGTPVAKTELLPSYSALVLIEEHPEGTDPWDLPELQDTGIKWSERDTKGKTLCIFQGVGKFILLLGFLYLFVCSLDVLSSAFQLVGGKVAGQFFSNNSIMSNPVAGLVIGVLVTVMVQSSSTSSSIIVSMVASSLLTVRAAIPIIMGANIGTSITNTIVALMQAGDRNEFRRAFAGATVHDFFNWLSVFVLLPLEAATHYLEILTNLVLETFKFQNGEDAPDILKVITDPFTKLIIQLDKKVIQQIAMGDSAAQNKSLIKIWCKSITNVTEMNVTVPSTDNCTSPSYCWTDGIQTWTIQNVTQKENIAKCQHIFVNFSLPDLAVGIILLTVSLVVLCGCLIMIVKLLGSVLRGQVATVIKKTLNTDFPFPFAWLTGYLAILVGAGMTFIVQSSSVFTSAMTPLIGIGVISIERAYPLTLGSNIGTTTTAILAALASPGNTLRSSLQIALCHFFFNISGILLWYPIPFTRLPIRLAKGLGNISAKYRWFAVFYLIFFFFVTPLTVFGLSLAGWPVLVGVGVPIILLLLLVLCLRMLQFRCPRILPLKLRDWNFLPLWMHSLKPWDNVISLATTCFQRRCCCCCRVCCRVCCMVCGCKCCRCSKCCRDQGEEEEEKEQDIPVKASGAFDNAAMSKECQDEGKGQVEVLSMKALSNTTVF
As to the kind of experiment: flow cytometry on HEK293-6e cells transfected with mouse NaPi2b, 24 h at 4 C, anti-human IgG Fc AF647.

Another assay deals with T3, cynomolgus monkey NaPi2b (cynomolgus monkey, UniProt O95436 1-690 (human entry)).
T3 construct: also called Cyno NaPi2b; Cy NaPi2b
T3 chain: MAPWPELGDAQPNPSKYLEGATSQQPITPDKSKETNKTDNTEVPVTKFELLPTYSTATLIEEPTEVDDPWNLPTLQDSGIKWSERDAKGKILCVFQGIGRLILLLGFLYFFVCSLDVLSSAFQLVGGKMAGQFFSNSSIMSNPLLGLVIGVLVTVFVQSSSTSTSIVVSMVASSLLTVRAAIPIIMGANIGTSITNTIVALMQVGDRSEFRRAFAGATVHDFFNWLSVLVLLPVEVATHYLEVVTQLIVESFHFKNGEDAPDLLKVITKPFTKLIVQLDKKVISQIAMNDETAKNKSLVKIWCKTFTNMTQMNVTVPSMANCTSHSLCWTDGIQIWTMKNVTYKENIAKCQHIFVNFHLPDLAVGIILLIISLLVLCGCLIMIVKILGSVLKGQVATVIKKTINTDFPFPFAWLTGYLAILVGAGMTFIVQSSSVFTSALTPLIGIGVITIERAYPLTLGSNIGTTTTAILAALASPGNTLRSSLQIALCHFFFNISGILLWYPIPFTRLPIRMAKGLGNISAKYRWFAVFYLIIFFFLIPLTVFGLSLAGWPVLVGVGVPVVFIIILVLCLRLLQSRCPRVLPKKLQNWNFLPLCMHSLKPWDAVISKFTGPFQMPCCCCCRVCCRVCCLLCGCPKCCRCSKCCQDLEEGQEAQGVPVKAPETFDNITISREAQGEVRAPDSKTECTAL
The assay is described as follows: flow cytometry on HEK293-6e cells transfected with cynomolgus monkey NaPi2b, 24 h at 4 C, anti-human IgG Fc AF647.

The target in assay [2] is T1, human sodium-dependent phosphate …. As to the kind of experiment: flow cytometry on OVCAR-3 cells (endogenous NaPi2b), 24 h at 4 C, anti-human IgG Fc AF647.
Description: as §1
Assay [3] shares this target. As to the kind of experiment: flow cytometry on H441 cells (endogenous NaPi2b), 24 h at 4 C, anti-human IgG Fc AF647, APC-A GeoMean.
Description: (§2) Cells were maintained under standard culture conditions (37° C./5% CO₂) until assay set-up. […] Cells were removed from culture vessels using Cell Dissociation Buffer (Invitrogen, Waltham, MA), seeded at 50,000 cells/well in conical-bottom 96-well plates, and treated with test antibody or antibody-drug conjugate for 24 hours at 4° C. to prevent internalization. […] Following incubation and washing, fluorescence was detected by flow cytometry on a BD LSRFortessa™ Cell Analyzer (BD Biosciences, Franklin Lake, NJ) with 1,000 minimum events collected per well.
The target is the same in assay [4]. The assay is described as follows: flow cytometry on HCC-78 cells (endogenous NaPi2b), 24 h at 4 C, anti-human IgG Fc AF647, APC-A GeoMean.
Description: as §2
For assay [5] the target is unchanged. The assay is described as follows: flow cytometry on IGROV-1 cells (endogenous NaPi2b), 24 h at 4 C, anti-human IgG Fc AF647, APC-A GeoMean.
Description: as §2
Another assay concerns the target T4, Biotinylated human FcRn (human, UniProt P55899 24-297; P61769 21-119, limits assumed, biotinylated (site not stated)).
T4 construct: also called Biotinlated human FcRn; human neonatal fragment crystallizable receptor (FcRn)
As to the kind of experiment: SPR (Biacore T200), biotinylated FcRn on neutravidin, antibody as analyte, pH 5.9, steady-state fit.

The target of assay [6] is T5, human FcγR I CD64 (Sino Biological Inc. 10256-H08H) (human, UniProt P12314 16-288).
T5 construct: Bought reagent
The assay is described as follows: SPR (Biacore T200), antibody captured on protein A, FcγR as analyte, multicycle, 1:1 fit. In general terms: Surface plasmon resonance follows binding to a sensor surface in real time, without labels.
Description: (§3) Approximately 400-600 RUs of each antibody (2 μg/mL) were captured on the protein A surface on flow cell 2, 3 and 4 by injecting at 10 μL/min for 60 s. Flow cell 1 was used as a reference surface. […] Each in-house FcγR with five concentrations were flowed as analyte using single-cycle kinetics strategy. The flow rate of FcγRs was 50 L/min with contact time of 40 sec and dissociation time of 120 sec. For the high affinity FcγRI CD64, multicycle kinetics were applied. The flow rate of the analyte was 100 L/min with contact time of 100 sec and dissociation time of 650 sec. Blank buffer control was injected using the same flow rate and contact time for each cycle. Surface regeneration was accomplished using 10 mM glycine-HCl, pH 1.5 (Cytiva©, BR100354) for 30 sec with a flow rate of 50 μL/min after each cycle. Binding constants and the maximum observed binding signal (Rmax) were determined using the Biacore™ T200 Evaluation software (version 3.0; GE Healthcare). For single-cycle kinetics, blank-subtracted sensorgrams were analyzed using steady state affinity fitting model. For multicycle kinetics, results were fit to the 1:1 Langmuir binding model.

Assay [7] concerns the target T6, human FcγR IIB Y160 CD32bY (v5777) (human, UniProt P31994 43-217, limits assumed).
T6 construct: In-house reagent
T6 sequence (looked up): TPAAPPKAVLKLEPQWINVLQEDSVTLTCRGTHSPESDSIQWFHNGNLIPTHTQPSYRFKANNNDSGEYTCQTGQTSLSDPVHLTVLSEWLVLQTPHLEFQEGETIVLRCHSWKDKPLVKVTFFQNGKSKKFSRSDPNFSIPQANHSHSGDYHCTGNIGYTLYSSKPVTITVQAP
The assay is described as follows: SPR (Biacore T200), antibody captured on protein A, FcγR as analyte, single-cycle, steady-state fit.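 Note: five FcγR concentrations per single cycle, 40 s association then 120 s dissociation, responses corrected against a reference flow cell and blank buffer injections.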
Description: as §3

Assay [8] addresses T7, human FcγR IIIA V159 CD16aV (v5773) (human, UniProt P08637 17-208, limits assumed).
T7 construct: In-house reagent
The description is as above.
Description: as §3

Assay [9] has as its target T8, human FcγR IIA H131 CD32aH (v5774) (human, UniProt P12318 34-217, limits assumed).
T8 construct: In-house reagent
T8 sequence (looked up): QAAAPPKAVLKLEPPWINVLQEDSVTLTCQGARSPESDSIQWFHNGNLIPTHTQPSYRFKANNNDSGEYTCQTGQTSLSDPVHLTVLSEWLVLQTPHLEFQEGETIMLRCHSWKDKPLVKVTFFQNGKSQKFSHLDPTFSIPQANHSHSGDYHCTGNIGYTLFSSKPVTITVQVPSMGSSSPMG
The description is as above.
Description: as §3

Assay [10] has as its target T9, human FcγR IIA R131 CD32aR (v5775) (human, UniProt P12318 34-217, limits assumed).
T9 construct: In-house reagent
T9 sequence (looked up): T8 sequence (looked up) with H134R
Described as above.
Description: as §3

Assay [11] deals with T1, human sodium-dependent phosphate …. The assay is described as follows: flow cytometry, IGROV-1 cells (endogenous NaPi2b). Further details: unit not given here.
For assay [12] the target is unchanged. As to the kind of experiment: flow cytometry on IGROV-1 cells (endogenous NaPi2b), 24 h at 4 C, anti-human IgG Fc AF647. This is another data set of the same source.
Description: (§4) Briefly, cells were seeded at 50,000 cells/well in conical-bottom 96-well plates and treated with test antibody for 24 hours at 4° C. to prevent internalization. […] Following incubation and washing, fluorescence was detected by flow cytometry on a BD LSRFortessa™ Cell Analyzer (BD Biosciences, Franklin Lake, NJ) with 1,000 minimum events collected per well.
Assay [13] concerns the target T10, KLH (Sigma-Aldrich, H8283).
T10 construct: Coating of the non-specific ELISA
The assay is described as follows: non-specific ELISA, KLH coated, antibody 100 nM. A general note: An ELISA detects its analyte on a solid surface through an enzyme-linked reagent.
Description: NS-ELISA was used to measure the propensity of the antibodies to bind to a range of biomolecules to emulate the undesirable non-specific interactions to biological matrices in vivo as described below.
NS-ELISA was carried out in Corning® 96-well EIA/RIA Easy Wash™ Clear Flat Bottom Polystyrene High Bind Microplate coated overnight at 4° C. with 50 μL of Heparin (Sigma, H3149) diluted with 50 mM sodium carbonate pH 9.6 to a final concentration of 250 μg/mL. The plate was incubated for 2 days at room temperature, wells that were coated with heparin were not covered to allow air dry. […] 50 μL each of insulin, KLH, dsDNA and ssDNA were added to a 96 well plate, followed by the incubation at 37° C. for 2 h. The coating materials were removed, and the plate was blocked with 200 μL of Gibco™ PBS pH7.4, 0.1% Tween®20, and incubated for 1 h at room temperature with shaking at 200 rpm. The plate was washed 3 times with Gibco™ PBS pH7.4, 0.1% Tween 20. 50 μL of each mAb at 100 nM (15 mg/mL) in Gibco™ PBS pH 7.4, 0.1% Tween®20 was added in duplicate to the wells and incubated for 1 h at room temperature with shaking at 200 rpm. […] Plates were incubated for 1 h at room temperature, with shaking at 200 rpm. The plate was washed three times with Gibco™ PBS pH7.4, 0.1% Tween 20, and 100 μL of TMB substrate (Cell Signaling Technology©, 7004P6) added to each well. […] Binding scores were calculated as the ratio of the ELISA signal of the antibody to the signal of a well containing buffer instead of the primary antibody.

For assay [14], the target named is T1, human sodium-dependent phosphate …. As to the kind of experiment: flow cytometry, IGROV-1 cells (endogenous NaPi2b); apparent Kd.
Description: as §4

T4 sequence (P55899 24-297 limits assumed, chain 1 of 2): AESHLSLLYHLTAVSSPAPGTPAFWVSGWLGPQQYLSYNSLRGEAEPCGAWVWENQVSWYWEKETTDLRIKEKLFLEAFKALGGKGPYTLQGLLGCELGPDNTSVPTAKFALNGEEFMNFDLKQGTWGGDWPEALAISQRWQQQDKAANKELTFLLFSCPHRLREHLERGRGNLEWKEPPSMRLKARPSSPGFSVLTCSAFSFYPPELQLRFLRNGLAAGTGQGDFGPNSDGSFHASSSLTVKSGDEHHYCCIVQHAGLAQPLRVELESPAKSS
T4 sequence (P61769 21-119 limits assumed, chain 2 of 2): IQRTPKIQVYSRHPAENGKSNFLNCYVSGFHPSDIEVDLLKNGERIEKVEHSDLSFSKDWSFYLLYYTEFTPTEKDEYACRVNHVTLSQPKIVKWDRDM
T7 sequence (P08637 17-208 F176V limits assumed): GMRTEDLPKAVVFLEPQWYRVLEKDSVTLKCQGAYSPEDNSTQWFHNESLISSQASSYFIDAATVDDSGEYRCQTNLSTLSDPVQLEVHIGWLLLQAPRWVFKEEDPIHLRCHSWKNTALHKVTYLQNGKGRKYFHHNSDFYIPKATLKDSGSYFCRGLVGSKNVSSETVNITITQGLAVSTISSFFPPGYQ
T5 sequence (P12314 16-288 limits assumed): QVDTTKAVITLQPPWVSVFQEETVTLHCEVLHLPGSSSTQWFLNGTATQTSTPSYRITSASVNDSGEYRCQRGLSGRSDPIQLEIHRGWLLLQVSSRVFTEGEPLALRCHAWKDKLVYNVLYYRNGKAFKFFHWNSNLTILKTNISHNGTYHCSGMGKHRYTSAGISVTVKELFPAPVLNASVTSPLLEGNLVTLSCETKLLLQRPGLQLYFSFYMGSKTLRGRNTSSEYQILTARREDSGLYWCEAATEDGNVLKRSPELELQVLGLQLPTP
Description for Biotinylated human FcRn: Neutravidin with concentration of g/mL was injected into flow cell 1 to 4 targeting at 2000 RU with a flow rate of 10 L/min for immobilization. The reaction was inactivated with 1 M Ethanolamine-HCl pH8.5 (Cytiva©, BR100050), following with a buffer wash step using the running buffer, PBS-T (PBS+0.05% (v/v) Tween 20, pH5.9). […] The test articles with different dilutions were flowed as analyte using single-cycle kinetics strategy. The flow rate of analyte was 50 μL/min with contact time of 45 sec and dissociation time of 180 sec. Surface regeneration was accomplished using PBS-T (PBS+0.05% (v/v) Tween 20, pH7.4) for 120 sec with a flow rate of 30 μL/min after each cycle. Binding constants were determined with the Biacore™ T200 Evaluation software (version 3.0; GE Healthcare). Blank-subtracted sensorgrams were analyzed using steady state affinity fitting model. Binding percentage was calculated from observed Rmax and theoretical Rmax (Rmax/Rmax_ₜₕₑₒ), based on human FcRn capture density.
Description for cynomolgus monkey NaPi2b: (§5) Following transfection, cells were seeded at 50,000 cells/well in conical-bottom 96-well plates and treated with test antibody or antibody-drug conjugate for 24 hours at 4° C. to prevent internalization. […] Following incubation and washing, fluorescence was detected by flow cytometry on a BD LSRFortessa™ Cell Analyzer (BD Biosciences, Franklin Lake, NJ) with 1,000 minimum events collected per well.
Description for mouse NaPi2b: as §5

B1: v38591-MC-GGFG-AM-Compound 139 DAR 8 (antibody, human IgG1, kappa)
heavy: not shown
light: DVQMTQSPSSLSASVGDRVTITCRASQDVYSYLNWYQQKPGKAVKLLIYYTSRLQSGVPSRFSGSGSGTDYTLTISSLQPEDFATYYCQQYNIFPWTFGQGTKLEIKRTVAAPSVFIFPPSDEQLKSGTASVVCLLNNFYPREAKVQWKVDNALQSGNSQESVTEQDSKDSTYSLSSTLTLSKADYEKHKVYACEVTHQGLSSPVTKSFNRGEC
modifications: as above; MC-GGFG-AM-Compound 139 drug-linker on cysteines freed by TCEP reduction; sites not stated; DAR 8
notes: Antibody-drug conjugate of v38591; also called v38593
As a reminder, the EC50 (read off the curve) is the concentration that produces a half-maximal response. For B1, the half-maximal effective concentration (EC50 (read off the curve)) is around 2 nM in assay [1], around 0.6 nM with mouse NaPi2b, around 0.5 nM with cynomolgus monkey NaPi2b and around 3 nM in [2].

B2: v38591-MC-GGFG-AM-Compound 139 DAR 4 (antibody, human IgG1, kappa)
heavy: not shown
light: B1 light
modifications: as above; MC-GGFG-AM-Compound 139 drug-linker on cysteines freed by TCEP reduction; sites not stated; DAR 4
notes: Antibody-drug conjugate of v38591
Consider B2, for which the concentration for a half-maximal effect (EC50 (read off the curve)) in assay [1] was around 2 nM; in assay [3], around 0.6 nM; in [4] it was around 3 nM; in assay [5], around 2 nM; with cynomolgus monkey NaPi2b, around 0.4 nM; in assay [2], 2 to 3 nM.

B3: v40554 (LALA) anti-NaPi2b antibody (antibody)
chain 1: not shown
chain 2: B1 light
Turning to B3, the Binding percentage in the assay with Biotinylated human FcRn was 27%; in [6], 6.4%; in assay [7], 53.2%; in [8], 41.5%; in [9], 63.8%; in assay [10], 58%. For the same molecule, the Kd with Biotinylated human FcRn came to 132 nM; in assay [6] it was 3.79 nM; in assay [7] it was 48700 nM; in assay [8], 4020 nM; in assay [9], 29200 nM; in assay [10], 29300 nM.

B4: v23855 (parental mouse-human chimeric anti-NaPi2b antibody) (antibody, human IgG1, kappa, V domains shown)
VH: QAYLQQSGAELVRPGASVKMSCKASGFTFTSYNVHWVKQTPRQGLEWIAAISPGNGDLSYNQRFKDKATLTVDRSSSTAYMQLSGLTSEDSAVYFCARGRTGMGAVDYWGQGTSVTVSS
VL: DVQMTQTASSLSASLGDRVTISCRASQDVYSYLNWYQQKPHGTVKLLIYYTSRLQSGVPSRFTGSGSGTDYSLTISNLEPEDIATYYCQQYNIFPWTFGGGTKLEIKR
notes: IgG1/kappa full-size antibody; also called parental chimeric
For the molecule B4, the Bmax in assay [11] is 43700. Also, the “EC50 (read off the curve)” value in [12] is around 0.8 nM. Further, in assay [13], the “NS-ELISA binding score (signal over buffer well)” value worked out at 2.38. The Kd in assay [14] was 0.84 nM.
